Like-named read-outs stand apart in the source and are kept apart here.
Legend:
[1] = target: T1, CspC (C-terminal His-tagged) (Staphylococcus aureus Newman, UniProt O33592 1-66); experiment: EMSA
[2] = target: T1, CspC (C-terminal His-tagged); experiment: EMSA; remark: listed apart in the source

AAGTGTATAATGAAAG (ssDNA) [ssDNA3]
binding result [1]: no binding

GTCGACTTTTTTTTTTTTTTTTTTTT (ssDNA) [ssDNA1]
binding result [2]: binds
